Laboratory results taken from patent US20070041944A1, “Treating tumors by ENH dislocation of ID proteins” (THE TRUSTEES OF COLUMBIA UNIVERSITY IN THE CITY OF NEW YORK, priority 2005, published 2007).

Key:
GST-Id1 = biological target: T1, GST-Id1 (Homo sapiens, UniProt P41134); experiment: GST pull-down assay with GST-Id1; assay type: binding; conditions: in vitro-translated 35S-labeled ENH (FIG. 2B Right)
T1 construct: made in house; host or cells: E. coli BL21 Star (Invitrogen)
T1 sequence (P41134 1-155): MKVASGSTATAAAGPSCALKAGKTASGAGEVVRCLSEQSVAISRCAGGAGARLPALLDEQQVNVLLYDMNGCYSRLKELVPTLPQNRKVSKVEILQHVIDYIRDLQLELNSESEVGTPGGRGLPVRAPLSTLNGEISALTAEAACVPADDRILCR
Procedure: (§1) GST Pull-Down Assay, Western Blot, and Coimmunoprecipitation: GST fusion proteins were purified from BL21 Star (Invitrogen). GST pull-down assay was performed as described in lavarone, A. et al., (1994), Genes Dev., 8:1270-1284. For Wetern blot analysis, cellular pellets were lysed in ice-cold RIPA buffer (50 mM Tris, pH 7.5/150 mM NaCl/1% Nonidet P-40/0.5% sodium deoxycholate/0.1% SDS) containing Complete Mini protease inhibitor pellet (Roche) and 1 mM PMSF. Lysates were electrophoresed on SDS/PAGE gels and transferred to nitrocellulose membrane (Amersham Pharmacia Biotech). Membranes were stained with antibodies against ENH, Id2 (Santa Cruz Biotechnology), and α-tubulin (Sigma), and blots were developed by using ECLWestem Blotting Detection System (Amersham Pharmacia Biotech). The anti-ENH antibody is a rabbit polyclonal that was produced in collaboration with Zymed against a peptide that is fully conserved in the mouse sequence (KQQNGPPRKHI (SEQ ID NO:1)). Coimmunoprecipitation of Id2 and ENH from cells transfected with pcDNA.3-Id2 and p3XFlag-ENH was performed as described (lavarone, A. et al., (2004), Nature, 432:1040-1045).
(§2) Given the high homology among the HLH domains of the three Id proteins, it was asked whether Id1 and Id3 could also bind ENH in this assay. Indeed, both GST-Id1 and GST-Id3 bound to full-length ENH (FIG. 2B Right).

[1] = test system: endogenous Id2 in SK-N-SH cells; experiment: Subcellular localization of endogenous Id2 after ectopic Flag-ENH (immunofluorescence); assay type: cell-based, human; conditions: SK-N-SH transiently transfected with Flag-ENH (FIG. 4B)
Procedure: Quantitative Analysis of Subcellular Localization of Id2 and siRNA Experiments: SK-N-SH-Flag-Id2 cells untreated or treated with RA for 48 h were fixed in 4% paraformaldehyde. Flag-Id2 and endogenous ENH were immunostained by using Flag-M2 (Sigma) and ENH antibodies, respectively. SK-N-SH cells were transfected with vector or p3XFlag-ENH and immunostained by using Flag-M2 and Id2 (Zymed) antibodies. For silencing of ENH, ENH siRNA (siGenome Smartpool reagent M-006930-00) and control, nontargeting (siGenome Smartpool reagent D-001206-13) siRNA mixtures were purchased from Dharmacon. SK-N-SH cells stably expressing Flag-Id2 were treated with vehicle control or RA for 48 h and transfected with 60 nM siRNAs by using Lipofectamine 2000 (Invitrogen). Thirty-six hours after transfection cells were fixed in 4% paraformaldehyde and immunostained by using Flag-M2 antibodies. Parallel cultures were analyzed by Western blot. Secondary antibodies were FITC- or Cy3-conjugated anti-rabbit and Cy3-conjugated anti-mouse (Jackson ImmunoResearch). Nuclei were counterstained with DAPI. Slides were mounted in 90% glycerol in PBS and analyzed on an Olympus epifluorescence microscope. The percentage of cells displaying Id2 staining in the nucleus was scored by counting at least 500 cells from triplicate samples. […]

GST-Id3 = biological target: T2, GST-Id3 (Homo sapiens, UniProt Q02535); experiment: GST pull-down assay with GST-Id3; assay type: binding; conditions: in vitro-translated 35S-labeled ENH (FIG. 2B Right)
T2 construct: made in house; host or cells: E. coli BL21 Star (Invitrogen)
T2 sequence (Q02535 1-119): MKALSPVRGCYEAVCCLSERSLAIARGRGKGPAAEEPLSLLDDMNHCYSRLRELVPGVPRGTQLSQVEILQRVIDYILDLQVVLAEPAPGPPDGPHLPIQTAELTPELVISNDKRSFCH
Procedure: as §1, §2

GST-Id2 = biological target: T3, GST-Id2 (Homo sapiens, UniProt Q02363); experiment: GST pull-down assay with GST-Id2; assay type: binding; conditions: in vitro-translated 35S-labeled proteins, autoradiography (FIG. 2B)
T3 construct: made in house; host or cells: E. coli BL21 Star (Invitrogen)
T3 sequence (Q02363 1-134): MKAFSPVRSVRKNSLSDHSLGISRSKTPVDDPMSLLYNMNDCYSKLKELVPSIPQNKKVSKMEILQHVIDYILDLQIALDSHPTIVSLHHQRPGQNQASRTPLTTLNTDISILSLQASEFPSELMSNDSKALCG
Procedure: as §1
To validate the specificity of the binding between ENH and Id2 and identify the domains that mediate this interaction, GST fusion proteins and in vitro-translated proteins in pull-down assays.

SK-N-SH cells = experiment: BrdU incorporation study; assay type: cell-based, human; conditions: BrdU 6 h and 14 h
Procedure: BrdU Incorporation Study: SK-N-SH cells were plated in Lab-Tek Chamber Slides (Nalge Nunc Intl.). Cells were transfected with plasmids expressing the empty vector, Id2, ENH, or both and an EGFP expression vector to identify transfected cells. After 24 h, cells were labeled with 10 μM BrdU for 6 h and 14 h, fixed, and stained with anti-BrdU antibody (Roche) for 1 h at room temperature. Secondary antibody was donkey anti-mouse, Cy3-conjugated (Jackson hnmunoResearch). Nuclei were counterstained with DAPI. Cells were examined on an Olympus epifluorescence microscope. BrdU-positive cells were scored by counting at least 500 GFP-positive cells in three independent experiments.
A well known function of Id2 is the ability to enhance cell proliferation by promoting the transition from G1 to S phase of the cell cycle. Therefore, it was asked whether ENH inhibited cell proliferation and opposed Id2-mediated entry into S phase. […] Next SK-N-SH was transfected with ENH and Id2 in the presence of a GFP expression plasmid and measured the rate of DNA synthesis by incorporation of BrdU of the successfully transfected, GFP-positive cells.

binding of GST-Id1 to ENH (GST-Id1): bound
binding of GST-Id3 to ENH (GST-Id3): bound
binding of GST-Id2 to ENH constructs (GST-Id2): bound efficiently
B1: ENH: actin cytoskeleton-associated PDZ-LIM protein ENH (Enigma Homologue), full-length, SEQ ID NO:4; also used Flag-tagged (protein, listed as Homo sapiens)
chain: MSNYSVSLVGPAPWGFRLQGGKDFNMPLTISSLKDGGKAAQANVRIGDVVLSIDGINAQGMTHLEAQNKIKGCTGSLNMTLQRASAAPKPEPVPVQKGEPKEVVKPVPITSPAVSKVTSTNNMAYNKAPRPFGSVSSPKVTSIPSPSSAFTPAHATTSSHASPSPVAAVTPPLFAASGLHANANLSADQSPSALSAGKTAVNVPRQPTVTSVCSETSQELAEGQRRGSQGDSKQQNGPPRKHIVERYTEFYHVPTHSDASKKRLIEDTEDWRPRTGTTQSRSFRILAQITGTEHLKESEADNTKKANNSQEPSPQLASSVASTRSMPESLDSPTSGRPGVTSLTTAAAFKPVGSTGVIKSPSWQRPNQGVPSTGRISNSATYSGSVAPANSALGQTQPSDQDTLVQRAEHIPAGKRTPMCAHCNQVIRGPFLVALGKSWHPEEFNCAHCKNTMAYIGFVEEKGALYCELCYEKFFAPECGRCQRKILGEVINALKQTWHVSCFVCVACGKPIRNNVFHLEDGEPYCETDYYALFGTICHGCEFPIEAGDMFLEALGYTWHDTCFVCSVCCESLEGQTFFSKKDKPLCKKHAHSVNF
subcellular localization of endogenous Id2 [1]: translocation of Id2 to the cytoplasm
Id2-mediated stimulation of DNA synthesis (SK-N-SH cells; ENH and Id2 cotransfected): abrogated
S phase entry (BrdU incorporation of GFP-positive cells) (SK-N-SH cells; ectopic ENH): strongly inhibited
